Results: the supplement of paper PMC7125110
± gives the standard error. Fewer inactive variants are shown than the library holds.

B1: glmS ribozyme (parent)
chain: AUAAAAGCGCCAGAACUACAGAAAUGUAGUUGACGAGGAGGAGGUUUAUCGAAUUUUCGGCGGAUGCCUCCAAA

Assays:
Details in all cases: with glucosamine-6-phosphate
[1] = variants of: B1; assay: self-cleavage kobs at 40 uM GlcN6P; higher = faster cleavage; RNA array
Summary of the method: (§1)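 Sequenced MiSeq chips were the platform: E. coli RNA polymerase transcribed barcoded ribozyme variants on them in situ, and a hybridised Cy3 probe tracked these at 37 °C. After glucosamine-6-phosphate (40 μM to 10 mM) in HEPES/KCl/Mg(OAc)2 buffer was flowed in, tiles were imaged over ~14 h. Signals normalised to baseline and to non-cleaving reference variants were reduced to per-tile medians and fit to one- or two-exponential decays to obtain kobs. kcat and KM were derived through weighted Michaelis–Menten fits across concentrations.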

[2] = variants of: B1; assay: self-cleavage kobs at 160 uM GlcN6P; higher = faster cleavage; RNA array
Summary of the method: as §1

[3] = variants of: B1; assay: self-cleavage kobs at 640 uM GlcN6P; higher = faster cleavage; RNA array
Summary of the method: as §1

[4] = variants of: B1; assay: self-cleavage kobs at 2500 uM GlcN6P; higher = faster cleavage; RNA array
Summary of the method: as §1

[5] = variants of: B1; assay: self-cleavage kobs at 10000 uM GlcN6P; higher = faster cleavage; RNA array
Summary of the method: as §1

Row | Variant | self-cleavage kobs at 40 uM GlcN6P [1] | self-cleavage kobs at 160 uM GlcN6P [2] | self-cleavage kobs at 640 uM GlcN6P [3] | self-cleavage kobs at 2500 uM GlcN6P [4] | self-cleavage kobs at 10000 uM GlcN6P [5]
1 | C8U G37C | < 1e-05 s⁻¹ | < 1e-05 s⁻¹ | < 1e-05 s⁻¹ | < 1e-05 s⁻¹ | < 1e-05 s⁻¹
2 | G37C G60U | < 1e-05 s⁻¹ | < 1e-05 s⁻¹ |  |  | < 1e-05 s⁻¹
3 | C16U G51A | < 1e-05 s⁻¹ | < 1e-05 s⁻¹ |  |  | 
4 | C50G C67U C68U C71U | 0.000172 ± 4.1e-05 s⁻¹ |  | 0.000393 ± 0.00011 s⁻¹ | 0.000127 ± 3e-05 s⁻¹ | 7.29e-05 ± 1.3e-05 s⁻¹
5 | A12C G62U | < 1e-05 s⁻¹ | < 1e-05 s⁻¹ | < 1e-05 s⁻¹ | < 1e-05 s⁻¹ | < 1e-05 s⁻¹
6 | C16A A42C G66U | < 1e-05 s⁻¹ |  |  |  | < 1e-05 s⁻¹
7 | G43A G62C | < 1e-05 s⁻¹ |  |  | < 1e-05 s⁻¹ | < 1e-05 s⁻¹
8 | U55A U69C | 0.000718 ± 0.00017 s⁻¹ | 0.000108 ± 3.1e-05 s⁻¹ | 0.000329 ± 0.0001 s⁻¹ | 7.69e-05 ± 3e-05 s⁻¹ | 0.00148 ± 0.0004 s⁻¹
9 | A52U U55A U57C C67A | < 1e-05 s⁻¹ |  |  |  | < 1e-05 s⁻¹
10 | C10G G29A A48G | < 1e-05 s⁻¹ |  |  |  | 
11 | A53C G59A | < 1e-05 s⁻¹ |  | < 1e-05 s⁻¹ |  | 
12 | U45C C58U | < 1e-05 s⁻¹ | < 1e-05 s⁻¹ | < 1e-05 s⁻¹ | < 1e-05 s⁻¹ | 
13 | A33C C34A | < 1e-05 s⁻¹ | < 1e-05 s⁻¹ | < 1e-05 s⁻¹ | < 1e-05 s⁻¹ | < 1e-05 s⁻¹
14 | A33G U45A C71A | < 1e-05 s⁻¹ |  |  |  | < 1e-05 s⁻¹
15 | A6C G40U A42C U45A G59C C61G A64U | < 1e-05 s⁻¹ |  |  | < 1e-05 s⁻¹ | 
16 | A33C A52C C71A | < 1e-05 s⁻¹ |  | < 1e-05 s⁻¹ | < 1e-05 s⁻¹ | 
17 | A15G A42G A53G | 0.00166 ± 0.00034 s⁻¹ |  | 0.00796 ± 0.003 s⁻¹ |  | 
18 | C8A A33U G40A A64G C68A | < 1e-05 s⁻¹ |  | < 1e-05 s⁻¹ | < 1e-05 s⁻¹ | < 1e-05 s⁻¹
19 | U49C G60A | < 1e-05 s⁻¹ | < 1e-05 s⁻¹ |  |  | < 1e-05 s⁻¹
20 | A6G A14U U65G | < 1e-05 s⁻¹ |  |  |  | 
21 | A12C G38C U45A | < 1e-05 s⁻¹ |  |  |  | < 1e-05 s⁻¹
22 | A36U U47G A53G C68G | 7.44e-05 ± 2.6e-05 s⁻¹ |  |  |  | 0.000107 ± 3.7e-05 s⁻¹
